Measured values: EP4471048A1, “PEPTIDE INHIBITORS OF INTERLEUKIN-23 RECEPTOR” (Zealand Pharma A/S, priority 2023, dated 2024)
*1 amine or outer side, *2 acyl side, *3 side chain or, on linkers, in order; H or OH if unused. Bridges are numbered along the chain shown (N, C = ends). Where no end group is shown, it is not given here. [ ]: non-standard residue; d: D form. 4‑Aminomethyl‑phenylacetyl = 4-aminomethyl-phenylacetyl unit, its amine closes the lactam, O=C(Cc1ccc(CN[*:1])cc1)[*:2]; (N3)‑K = lysine with the alpha-amine converted to an azide, [N-]=[N+]=N[C@@H](CCCCN[*:3])C(=O)[*:2]; Trp(1-Me) = Cn1cc(C[C@H](N)C(=O)O)c2ccccc21; 2Nal = N[C@@H](Cc1ccc2ccccc2c1)C(=O)O; AEF = NCCOc1ccc(C[C@H](N)C(=O)O)cc1; 3Pal = N[C@@H](Cc1cccnc1)C(=O)O; αMeL = CC(C)C[C@](C)(N)C(=O)O; CH2COCH2 = O=C(C[*:1])C[*:2]; NMeK = CN[C@@H](CCCCN)C(=O)O; dOrn = NCCC[C@@H](N)C(=O)O; NMeS = CN[C@@H](CO)C(=O)O; dDab = NCC[C@@H](N)C(=O)O; Orn = NCCC[C@H](N)C(=O)O; Pra = C#CC[C@H](N)C(=O)O; Dab = NCC[C@H](N)C(=O)O; βAla = NCCC(=O)O

B1: Compound 11 (peptide)
peptide: [dDab]TVWQD[AEF][2Nal][αMeL]E[Dab][3Pal]-NH2
modifications: lactam 1-10, N-6
SMILES: CC(C)C[C@]1(C)NC(=O)[C@H](Cc2ccc3ccccc3c2)NC(=O)[C@H](Cc2ccc(OCCN)cc2)NC(=O)[C@@H]2CC(=O)N[C@H](CCNC(=O)CC[C@@H](C(=O)N[C@@H](CCN)C(=O)N[C@@H](Cc3cccnc3)C(N)=O)NC1=O)C(=O)N[C@@H]([C@@H](C)O)C(=O)N[C@@H](C(C)C)C(=O)N[C@@H](Cc1c[nH]c3ccccc13)C(=O)N[C@@H](CCC(N)=O)C(=O)N2
B2: Compound 79 (peptide)
peptide: K[βAla][Trp(1-Me)]QE[AEF][2Nal][αMeL]E[Dab][3Pal]-NHMe
modifications: lactam 1-9, 1-5; not fully specified; printed as K(1c)(6c)^†[3-Aminopropanoyl][1-Me-Trp]QE(6c)[Y(2-aminoethoxy)][2-Nal][2-Me-Leu]E(1c)[Dab][3-(3-Pyridyl)-Ala]-[NHMe], (1c) [2,11] lactam, (6c) [2,7] lactam, ^† alpha-amine in bridge; also: alpha-amine of residue 1 in bridge, which of the two lactams not given here
B3: Compound 10 (peptide)
peptide: [dOrn]TVWQD[AEF][2Nal][αMeL]E[Dab][3Pal]-NH2
modifications: lactam 1-10, N-6
SMILES: CC(C)C[C@]1(C)NC(=O)[C@H](Cc2ccc3ccccc3c2)NC(=O)[C@H](Cc2ccc(OCCN)cc2)NC(=O)[C@@H]2CC(=O)N[C@H](CCCNC(=O)CC[C@@H](C(=O)N[C@@H](CCN)C(=O)N[C@@H](Cc3cccnc3)C(N)=O)NC1=O)C(=O)N[C@@H]([C@@H](C)O)C(=O)N[C@@H](C(C)C)C(=O)N[C@@H](Cc1c[nH]c3ccccc13)C(=O)N[C@@H](CCC(N)=O)C(=O)N2
B4: Compound 76 (peptide)
peptide: KTVWQE[AEF][2Nal][Dab]E[Dab][3Pal]
modifications: lactam 1-10, 9-C; lactam (positions not given here); not fully specified (bridges); printed as K(1c)(6c)^{†}TVWQE(6c)[Y(2-aminoethoxy)][2-Nal][Dab](7c)E(1c)[Dab][3-(3-Pyridyl)-Ala](7c)^{‡}
B5: Compound 91 (peptide)
peptide: [Orn][βAla]WQE[AEF][2Nal][αMeL]E[Dab][3Pal]-NHMe
modifications: lactam 1-9, 1-5; not fully specified; printed as [Orn](1c)(6c)^†[3-Aminopropanoyl]WQE(6c)[Y(2-aminoethoxy)][2-Nal][2-Me-Leu]E(1c)[Dab][3-(3-Pyridyl)-Ala]-[NHMe], (1c) [2,11] lactam, (6c) [2,7] lactam, ^† alpha-amine in bridge; also: alpha-amine of residue 1 in bridge, which of the two lactams not given here
B6: Compound 80 (peptide)
peptide: [NMeK][βAla]WQE[AEF][2Nal][αMeL]E[Dab][3Pal]-NHMe
modifications: lactam 1-9, 1-5; not fully specified; printed as [N-Me-Lys](1c)(6c)^†[3-Aminopropanoyl]WQE(6c)[Y(2-aminoethoxy)][2-Nal][2-Me-Leu]E(1c)[Dab][3-(3-Pyridyl)-Ala]-[NHMe], (1c) [2,11] lactam, (6c) [2,7] lactam, ^† alpha-amine in bridge; also: alpha-amine of residue 1 in bridge, which of the two lactams not given here
B7: Compound 43 (peptide)
peptide: KWQE[AEF][2Nal][αMeL]E[Dab][3Pal]-NHMe
modifications: lactam 1-8, N-4
SMILES: CNC(=O)[C@H](Cc1cccnc1)NC(=O)[C@H](CCN)NC(=O)[C@@H]1CCC(=O)NCCCC[C@@H]2NC(=O)CC[C@H](NC(=O)[C@H](CCC(N)=O)NC(=O)[C@H](Cc3c[nH]c4ccccc34)NC2=O)C(=O)N[C@@H](Cc2ccc(OCCN)cc2)C(=O)N[C@@H](Cc2ccc3ccccc3c2)C(=O)N[C@@](C)(CC(C)C)C(=O)N1
B8: Compound 42 (peptide)
peptide: XTWQXXXXEXX
modifications: not fully specified; [{d}(N3)-K](1c)(6g)^†TWQ[Hpg](6g)[Y(2-aminoethoxy)][2-Nal][2-Me-Leu]E(1c)[Dab][3-(3-Pyridyl)-Ala]-[NHMe]; (1c) [2,11] lactam; (6g) [2,7] 1,4-disubstituted 1,2,3-triazole bridge; ^† alpha-amine converted into an azide in bridge
B9: Compound 102 (peptide)
peptide: [iso‑Lys]WQE[AEF][2Nal][αMeL]E[Dab][3Pal]-NHMe
modifications: lactam (positions not given here); not fully specified (bridges); printed as [iso-Lys](1c)^†(6c)WQE(6c)[Y(2-aminoethoxy)][2-Nal][2-Me-Leu]E(1c)[Dab][3-(3-Pyridyl)-Ala]-[NHMe], (1c) [2,11] lactam, (6c) [2,7] lactam, ^† alpha-amine in bridge
B10: Compound 41 (peptide)
peptide: [(N3)‑K]TWQ[Pra][AEF][2Nal][αMeL]E[Dab][3Pal]-NHMe
modifications: lactam 1-9; triazole (positions not given here); not fully specified (bridges); printed as [(N₃)-K](1c)(6g)^{†}TWQ[Pra](6g)[Y(2-aminoethoxy)][2-Nal][2-Me-Leu]E(1c)[Dab][3-(3-Pyridyl)-Ala]-[NHMe]
B11: Compound 110 (peptide)
peptide: K[βAla]WQEW[2Nal][αMeL]E[Dab][3Pal]-NHMe
modifications: lactam 1-9, N-5
SMILES: CNC(=O)[C@H](Cc1cccnc1)NC(=O)[C@H](CCN)NC(=O)[C@@H]1CCC(=O)NCCCC[C@@H]2NC(=O)CC[C@H](NC(=O)[C@H](CCC(N)=O)NC(=O)[C@H](Cc3c[nH]c4ccccc34)NC(=O)CCNC2=O)C(=O)N[C@@H](Cc2c[nH]c3ccccc23)C(=O)N[C@@H](Cc2ccc3ccccc3c2)C(=O)N[C@@](C)(CC(C)C)C(=O)N1
B12: Compound 63 (peptide)
peptide: KIVWQE[AEF][2Nal][αMeL]EP[3Pal]-NHMe
modifications: lactam 1-10; lactam (positions not given here); not fully specified (bridges); printed as K(1c)(6c)^{†}IVWQE(6c)[Y(2-aminoethoxy)][2-Nal][2-Me-Leu]E(1c)P[3-(3-Pyridyl)-Ala]-[NHMe]

Molecular target: T1, Nluc-IL23R fusion protein (human, UniProt Q5VWK5 22-629)
T1 construct: range 22-629; Stably expressed in HEK293 cells; also called hIL-23R; human IL-23R; not shown: Nanoluc protein (N1371, Promega) at the N-terminus, after a secretion signal
T1 sequence (looked up): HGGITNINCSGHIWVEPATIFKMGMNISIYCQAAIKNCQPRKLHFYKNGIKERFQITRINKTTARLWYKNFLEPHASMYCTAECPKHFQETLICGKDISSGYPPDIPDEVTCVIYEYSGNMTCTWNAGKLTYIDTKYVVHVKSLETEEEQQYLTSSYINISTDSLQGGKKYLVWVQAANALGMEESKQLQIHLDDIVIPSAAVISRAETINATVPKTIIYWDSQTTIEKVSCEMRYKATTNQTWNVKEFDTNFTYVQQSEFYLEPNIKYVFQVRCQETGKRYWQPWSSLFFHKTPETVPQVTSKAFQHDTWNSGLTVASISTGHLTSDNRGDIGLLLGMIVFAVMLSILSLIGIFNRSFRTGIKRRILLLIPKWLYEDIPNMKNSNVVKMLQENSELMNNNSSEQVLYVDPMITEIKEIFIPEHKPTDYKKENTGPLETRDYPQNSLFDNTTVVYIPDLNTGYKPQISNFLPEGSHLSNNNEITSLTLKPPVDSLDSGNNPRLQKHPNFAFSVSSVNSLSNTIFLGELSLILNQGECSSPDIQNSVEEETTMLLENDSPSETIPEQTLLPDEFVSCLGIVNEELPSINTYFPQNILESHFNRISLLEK
Assay: BRET competition vs TAMRA-labelled peptide, Nluc-IL23R membranes
Note: test concentration or dose not given here.

Binder	% displacement [%]
[4‑Aminomethyl‑phenylacetyl][NMeS]CWQC[AEF][2Nal][αMeL]E[Dab]-NH2 (lactam N-10; linker 3-6 via CH2COCH2) [Ref 141]	102
B1	104
B2	100
B3	107
B4	92
B5	100
B6	102
B7	100
B8	96
B9	97
B10	98
[iso‑Glu]WQE[AEF][2Nal][αMeL]K[Dab][3Pal]-NHMe (lactam 1-8, N-4; also: iso-Glu: alpha-carboxylic acid in bridge) [Compound 106]	99
B11	100
B12	98
